In publication doi:10.1101/2022.09.09.507346 (bioRxiv, 2022):

T1: MBP-GLK2 fusion protein (Golden2-like transcription factor GLK2, full length) (Arabidopsis thaliana, UniProt Q9FFH0 1-386)
T1 sequence (looked up): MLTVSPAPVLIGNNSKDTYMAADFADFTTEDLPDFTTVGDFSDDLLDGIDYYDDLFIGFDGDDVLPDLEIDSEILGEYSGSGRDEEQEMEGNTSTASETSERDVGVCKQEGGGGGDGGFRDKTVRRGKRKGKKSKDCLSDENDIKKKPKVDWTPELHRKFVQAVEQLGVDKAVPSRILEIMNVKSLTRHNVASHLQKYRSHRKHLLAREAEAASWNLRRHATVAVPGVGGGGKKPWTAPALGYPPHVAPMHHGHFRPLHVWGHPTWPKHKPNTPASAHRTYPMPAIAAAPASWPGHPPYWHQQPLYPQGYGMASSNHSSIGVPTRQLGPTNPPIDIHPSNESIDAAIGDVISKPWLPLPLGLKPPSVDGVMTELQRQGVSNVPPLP

T2: MBP-GLK1 fusion protein (Golden2-like transcription factor GLK1, full length) (Arabidopsis thaliana, UniProt Q9SIV3 1-420)
T2 sequence (looked up): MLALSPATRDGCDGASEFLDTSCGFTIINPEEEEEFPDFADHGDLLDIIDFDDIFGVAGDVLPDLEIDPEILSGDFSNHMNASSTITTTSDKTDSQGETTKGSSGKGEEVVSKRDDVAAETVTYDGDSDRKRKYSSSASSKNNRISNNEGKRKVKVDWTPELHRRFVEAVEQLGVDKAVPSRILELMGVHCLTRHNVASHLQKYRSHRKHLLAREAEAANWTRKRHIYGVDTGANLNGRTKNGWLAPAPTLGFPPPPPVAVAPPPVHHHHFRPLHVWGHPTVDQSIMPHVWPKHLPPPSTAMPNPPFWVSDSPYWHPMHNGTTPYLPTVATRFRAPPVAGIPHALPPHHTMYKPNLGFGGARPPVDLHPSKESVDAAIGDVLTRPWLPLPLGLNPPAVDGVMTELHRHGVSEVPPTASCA

B1: GST-GBF2 fusion protein (G-box Binding Factor 2, full length) (natural protein, Arabidopsis thaliana, UniProt P42775 1-360, looked up)
chain: MGSNEEGNPTNNSDKPSQAAAPEQSNVHVYHHDWAAMQAYYGPRVGIPQYYNSNLAPGHAPPPYMWASPSPMMAPYGAPYPPFCPPGGVYAHPGVQMGSQPQGPVSQSASGVTTPLTIDAPANSAGNSDHGFMKKLKEFDGLAMSISNNKVGSAEHSSSEHRSSQSSENDGSSNGSDGNTTGGEQSRRKRRQQRSPSTGERPSSQNSLPLRGENEKPDVTMGTPVMPTAMSFQNSAGMNGVPQPWNEKEVKREKRKQSNRESARRSRLRKQAETEQLSVKVDALVAENMSLRSKLGQLNNESEKLRLENEAILDQLKAQATGKTENLISRVDKNNSVSGSKTVQHQLLNASPITDPVAAS
B2: GST-GBF1 fusion protein (G-box Binding Factor 1, full length) (natural protein, Arabidopsis thaliana, UniProt P42774 1-315, looked up)
chain: MGTSEDKMPFKTTKPTSSAQEVPPTPYPDWQNSMQAYYGGGGTPNPFFPSPVGSPSPHPYMWGAQHHMMPPYGTPVPYPAMYPPGAVYAHPSMPMPPNSGPTNKEPAKDQASGKKSKGNSKKKAEGGDKALSGSGNDGASHSDESVTAGSSDENDENANQQEQGSIRKPSFGQMLADASSQSTTGEIQGSVPMKPVAPGTNLNIGMDLWSSQAGVPVKDERELKRQKRKQSNRESARRSRLRKQAECEQLQQRVESLSNENQSLRDELQRLSSECDKLKSENNSIQDELQRVLGAEAVANLEQNAAGSKDGEGTN
B3: GST-GBF3 fusion protein (G-box Binding Factor 3, full length) (natural protein, Arabidopsis thaliana, UniProt P42776 1-382, looked up)
chain: MGNSSEEPKPPTKSDKPSSPPVDQTNVHVYPDWAAMQAYYGPRVAMPPYYNSAMAASGHPPPPYMWNPQHMMSPYGAPYAAVYPHGGGVYAHPGIPMGSLPQGQKDPPLTTPGTLLSIDTPTKSTGNTDNGLMKKLKEFDGLAMSLGNGNPENGADEHKRSRNSSETDGSTDGSDGNTTGADEPKLKRSREGTPTKDGKQLVQASSFHSVSPSSGDTGVKLIQGSGAILSPGVSANSNPFMSQSLAMVPPETWLQNERELKRERRKQSNRESARRSRLRKQAETEELARKVEALTAENMALRSELNQLNEKSDKLRGANATLLDKLKCSEPEKRVPANMLSRVKNSGAGDKNKNQGDNDSNSTSKLHQLLDTKPRAKAVAAG

Molecular target: T1, MBP-GLK2 fusion protein (Golden2-like …)
Experiment: pull-down

Binding result, binds:
B1
B2
B3

Molecular target: T2, MBP-GLK1 fusion protein (Golden2-like …)
Experiment: pull-down

Binding result, binds:
B1
B2
B3
